Where a chain is given by its changes, count along the chain named. Names and notes keep the numbering of the source.
T1: hErbB3.mFc (soluble dimeric human ErbB3 extracellular domain fused to mouse Fc) (human)
T1 construct: called dimeric
T1 chain: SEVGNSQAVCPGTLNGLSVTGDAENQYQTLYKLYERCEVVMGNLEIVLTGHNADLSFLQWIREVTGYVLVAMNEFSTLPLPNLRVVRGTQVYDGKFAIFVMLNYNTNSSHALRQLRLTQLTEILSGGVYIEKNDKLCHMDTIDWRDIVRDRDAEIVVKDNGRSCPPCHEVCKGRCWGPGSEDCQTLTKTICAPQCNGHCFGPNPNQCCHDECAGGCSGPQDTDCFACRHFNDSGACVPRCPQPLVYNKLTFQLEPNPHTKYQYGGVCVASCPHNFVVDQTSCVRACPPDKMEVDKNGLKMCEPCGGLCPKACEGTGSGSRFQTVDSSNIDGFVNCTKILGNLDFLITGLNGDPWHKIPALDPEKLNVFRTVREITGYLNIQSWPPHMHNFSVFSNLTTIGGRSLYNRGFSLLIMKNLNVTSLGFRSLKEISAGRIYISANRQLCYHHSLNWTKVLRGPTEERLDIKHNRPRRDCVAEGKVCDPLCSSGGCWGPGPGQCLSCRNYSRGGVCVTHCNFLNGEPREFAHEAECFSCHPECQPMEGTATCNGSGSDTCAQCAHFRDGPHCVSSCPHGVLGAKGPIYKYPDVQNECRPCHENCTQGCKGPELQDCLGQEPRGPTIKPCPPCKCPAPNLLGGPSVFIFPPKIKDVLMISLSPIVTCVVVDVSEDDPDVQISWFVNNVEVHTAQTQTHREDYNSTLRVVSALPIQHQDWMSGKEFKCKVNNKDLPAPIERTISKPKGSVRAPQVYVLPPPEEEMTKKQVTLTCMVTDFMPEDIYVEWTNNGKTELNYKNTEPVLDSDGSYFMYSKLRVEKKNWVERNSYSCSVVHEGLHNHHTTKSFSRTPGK

B1: H4H2092P (antibody, V domains shown)
VH: EVQLVESGGGVVRPGGSLRLSCAASGFTFEDYGMNWVRQVPGKGLEWVSGTNWNGGITGYTGSVKGRFTISRDNAKNSLYLQMNSLRAEDTALYHCARDSGDQDAFDIWGQGTMVTVSS
VL: DIQLTQSPSFLSASVGDRVTITCWASQDISSYLAWYQQKPGKAPKLLIYAASTFQSGVPSRFSGSGSGTEFTLTISNLQPEDFATYYCQQLDSYPLSFGGGTKVEIKR
notes: Fully human, human IgG4 Fc (H4H prefix)
B2: H4H2147P (antibody, V domains shown)
VH: QVQLVESGGGLVKPGGSLRLSCAASGFTFSDFNMGWIRQAPGKGLEWVSHISGSGNVIYYADSVKGRFAISRDNGKNSLYLQVNSLRAEDTAVYYCARDIGDSDAFDIWGQGTMVTVSS
VL: B1 VL with A50G, F54L, Q55E, N77S, F83V, D92N, S93T, S97T
notes: as for B1
B3: H4H2140P (antibody, V domains shown)
VH: EVQLVESGGGLVQPGGSLRLSCAASGFSVSYYDMHWVRQVTGKGLEWVSAIGPAGDTYYPGSVKGRFTISREDATNSLYLQIHSLGAGDTAVYYCAREGAIAARPDDYYGMDVWGQGTTVTVSS
VL: B1 VL with F54L, N77S, D92N, S97T
notes: as for B1
B4: H4H2111P (antibody, V domains shown)
VH: QVQLVESGGGVVQPGRSLRLSCAASGFTFNNYGMHWVRQAPGKGLAWVAVMWYSESHKYYADSVKGRFTISRDNSKNTLYLEMNSLRVEDTAIYYCARDLGDPDAFDIWGQGTMVTVSS
VL: B1 VL with D28G, A50G, F54L, N77S, D92N, S97T
notes: as for B1
B5: H4H2143P (antibody, V domains shown)
VH: EVQLVESGGGLVQPGRSLRLSCAASGFTFGDYAMHWVRQAPGKGLEWVSGINLNSGTIGYADSVKGRFTISRDNAKNSLYLQMNSLRAEDTAFYYCAKDIDGYYHYAMDVWGQGTTVTVSS
VL: B1 VL with I2V, Q3V, L4M, D28G, A50D, F54L, Q55E, L91V, D92N, S97T
notes: as for B1
B6: H4H2094P (antibody, V domains shown)
VH: EVQLVESGGGLVQPGGSLRLSCAASGFTFSSYDMHWVRQATGKGLEWVSAIGPAGDTYYPVSAMGRFTISRDDAKNSLYLQMNSLRAGDTAVYYCAREGVTIRPDDYFGLDVWGQGTTVTVSA
VL: B1 VL with D28G, S31D, Q38K, K45Q, S52T, F54L, N77S, D92N, S93T, S97T
notes: as for B1
B7: H4H2102P (antibody, V domains shown)
VH: EVQLVESGGGLVQPGGSLRLSCAASGFTFSNYDIHWVRQATGKGLEWVSAIGPAGDTYYSDSVKGRFTISREDAKNSLYLQMSSLRAGDTAVYYCASEGIAVRPDDYYGMDVWGQGTTVTVSA
VL: B1 VL with S30T, Q38K, F54L, N77S, T85A, D92N, S97T, E105D
notes: as for B1
B8: H4H2098P (antibody, V domains shown)
VH: QVQLVESGGGVVQPGRSLRLSCAASGFTFSSFGMHWVRQAPGKGLEWVAVIWYVEINKYHADSVKGRFTISRDDSKNTVYLQMNSLRAEDTAVYYCARDWNDGDYGMDVWGQGTTVTVSS
VL: DIQLTQSPSFLSASVGDRVTITCWASQGISSFLAWYQQKAGKAPRLLIYAASTLQTGVPSRFSGSGSGTEFTLTISSLQPGDFATYHCQQLNSYPYTFGQGTKLEIKR
notes: as for B1
B9: H4H2146P (antibody, V domains shown)
VH: QVQLVESGGGVVQPGRSLRLSCAASGFTFINYGIHWVRQGPGKGLEWVAVIWYDGSNEWYADSVKGRFTISRDNSKNTVYLEMNKLRAEDTAVYYCAREEEDYGMDVWGQGTTVTVSS
VL: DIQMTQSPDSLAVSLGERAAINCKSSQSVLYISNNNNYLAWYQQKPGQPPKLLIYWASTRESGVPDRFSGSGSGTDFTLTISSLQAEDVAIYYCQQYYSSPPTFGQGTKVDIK
notes: as for B1
B10: H4H2132P (antibody, V domains shown)
VH: EVQLVESGGGVVRPGGSLRLSCAASGFTFDDYGMSWVRQFPGKGLEWVSSIDGNGGNTGYSDSVKGRFTISRDNAKNSLHLQMNSLRAEDTALYHCARDPDYDSVWGNYRPFDYWGQGTLVTVSS
VL: DIVMTQSPDSLAVSLGERATINCKSSQSVLSSSNDNNYLAWFQQKPGQPPNLLIYWASTRDSGVPDRFSASGSGTDFTLAISSLQAEDVAVYYCHQYYSSPPTFGQGTKVEIKR
notes: as for B1
B11: H4H2138P (antibody, V domains shown)
VH: QVQLQESGPGLVKPSQTLSLTCTVSGGSINSGGYYWSWIRQHPGKGLEWIGYISYSGNTNYNPSLKSRVTISVDTSKNQFSLTLTSVTAADTAVYYCARDSDVDTGLVDGFDVWGQGTMVTVSS
VL: DIVMTQSPSSVSASVGDRVTITCRASQGVSSWLAWYQQKPGKAPKLLIYTTSSLQSGVPSRFSGSGSGTDFTLTISSLQPEDFATYYCQQSNSFPFTFGPGTKVEIK
notes: as for B1
B12: H4H2084P (antibody, V domains shown)
VH: QVQLVESGGGVVQSGKSLRLSCVASGFTFSNYGMHWVRQTPGKGLEWVARIWFDGTNKYYTDSVKGRFTLSRDSSKNTLYLQMNSLRAEDTAVYFCAREESLELDHYVMDVWGQGTTVTVSS
VL: AIQMTQSPSSLSASVGDRVTITCRASQDIRDDLGWFQQKPGKAPNLLIYAASSLQSGVPSRFSGSGSGTDFTLTISSLQPEDFATYYCLQDYNYPLTFGGGTKVEIKR
notes: as for B1
B13: H4H2114P (antibody, V domains shown)
VH: QVQLVESGGGVVQPGRSLRLSCAASGFTFSSYGMHWVRQAPGKGLEWVAGMSYDGSSKYYEDSVKGRFTISRDNSKNTLNLQMNSLRVEDTAVYYCAKERDYVEYVDSYYGMDVWGQGTTVTVSA
VL: B12 VL with D28G, D31N, F36Y, N45K, L46V, D70V
notes: as for B1
B14: H4H2108P (antibody, V domains shown)
VH: EVQLLESGGDLVQPGGSLRLSCATSGFSFSSDAMNWVRQAPGKGLEWVSGISGSGGNTYYADSVKGRFTISRDISKSTLSLQMNSLRAEDTAVYYCAKEGTNMVRGVVMEDNGMDVWGQGTTVTVSA
VL: DIQMTQSPSSVSASVGDRVTITCRASQGISDYLAWYQQKPGKAPKLLIYAASSLQSGVPSRFSGRGSGTDFTLTISTLQPEDFATYYCQQANSFPLTFGGGTKVDIKR
notes: as for B1

Biological target: hErbB3.mmh (soluble monomeric human ErbB3 extracellular domain with C-terminal myc-myc-hexahistidine tag) (human, UniProt P21860 20-642)
Assay: SPR (Biacore), 25 C, mAb capture format
Method: (§1) (Tables 2-4). Measurements were conducted on a Biacore 2000 or T100 instrument. […] Kinetic association (kₐ) and dissociation (kd) rate constants were determined by processing and fitting the data to a 1:1 binding model using Scrubber 2.0 curve fitting software.

Row | Kd | T½ | koff | kon | Binder
1 | 27.8 pM | 1.72 h | 0.000103 s⁻¹ | 3.72e+06 M⁻¹ s⁻¹ | B1
2 | 43.8 pM | 1.63 h | 0.000108 s⁻¹ | 2.47e+06 M⁻¹ s⁻¹ | B2
3 | 19.8 pM | 5.43 h | 3.27e-05 s⁻¹ | 1.66e+06 M⁻¹ s⁻¹ | B3
4 | 53.1 pM | 1.52 h | 0.000118 s⁻¹ | 2.21e+06 M⁻¹ s⁻¹ | B4
5 | 53.1 pM | 1.82 h | 9.73e-05 s⁻¹ | 1.83e+06 M⁻¹ s⁻¹ | B5
6 | 7.22 pM | 13 h | 1.37e-05 s⁻¹ | 1.89e+06 M⁻¹ s⁻¹ | B6
7 | 55.1 pM | 3.63 h | 4.88e-05 s⁻¹ | 886000 M⁻¹ s⁻¹ | B7
8 | 69 pM | 2.25 h | 7.89e-05 s⁻¹ | 1.14e+06 M⁻¹ s⁻¹ | B8
9 | 12.4 pM | 5.13 h | 3.46e-05 s⁻¹ | 2.79e+06 M⁻¹ s⁻¹ | B9
10 | 17.7 pM | 4.65 h | 3.81e-05 s⁻¹ | 2.16e+06 M⁻¹ s⁻¹ | B10
11 | 20.9 pM | 3.55 h | 5.01e-05 s⁻¹ | 2.39e+06 M⁻¹ s⁻¹ | B11
12 | 23.9 pM | 2.98 h | 5.96e-05 s⁻¹ | 2.49e+06 M⁻¹ s⁻¹ | B12
13 | 106 pM | 1.8 h | 9.88e-05 s⁻¹ | 929000 M⁻¹ s⁻¹ | B13
14 | 41.8 pM | 2.18 h | 8.13e-05 s⁻¹ | 1.95e+06 M⁻¹ s⁻¹ | B14

Biological target: T1, hErbB3.mFc (soluble dimeric human ErbB3 …)
Assay: SPR (Biacore), 25 C, mAb capture format
Method: as §1

Row | Kd | T½ | koff | kon | Binder
15 | 1.45 pM | 23.8 h | 7.46e-06 s⁻¹ | 5.16e+06 M⁻¹ s⁻¹ | B1
16 | 1.5 pM | 38.8 h | 4.58e-06 s⁻¹ | 3.33e+06 M⁻¹ s⁻¹ | B2
17 | 0.393 pM | 180 h | 9.86e-07 s⁻¹ | 2.51e+06 M⁻¹ s⁻¹ | B3
18 | 2.49 pM | 20.4 h | 8.69e-06 s⁻¹ | 3.5e+06 M⁻¹ s⁻¹ | B4
19 | 1.75 pM | 38.4 h | 4.63e-06 s⁻¹ | 2.86e+06 M⁻¹ s⁻¹ | B5
20 | 0.452 pM | 130 h | 1.37e-06 s⁻¹ | 3.03e+06 M⁻¹ s⁻¹ | B6
21 | 1.43 pM | 78.7 h | 2.26e-06 s⁻¹ | 1.58e+06 M⁻¹ s⁻¹ | B7
22 | 4.06 pM | 19.8 h | 8.97e-06 s⁻¹ | 2.21e+06 M⁻¹ s⁻¹ | B8
23 | 0.435 pM | 89.9 h | 1.98e-06 s⁻¹ | 4.54e+06 M⁻¹ s⁻¹ | B9
24 | 0.958 pM | 53 h | 3.35e-06 s⁻¹ | 3.49e+06 M⁻¹ s⁻¹ | B10
25 | 1.47 pM | 32.5 h | 5.46e-06 s⁻¹ | 3.71e+06 M⁻¹ s⁻¹ | B11
26 | 1.03 pM | 44.9 h | 3.95e-06 s⁻¹ | 3.83e+06 M⁻¹ s⁻¹ | B12
27 | 5.41 pM | 22.2 h | 7.98e-06 s⁻¹ | 1.48e+06 M⁻¹ s⁻¹ | B13
28 | 1.46 pM | 41 h | 4.33e-06 s⁻¹ | 2.96e+06 M⁻¹ s⁻¹ | B14

From patent publication US20140072563A1 (Regeneron, published 2014)
